Reference: patent publication US8257698B2, “Protein engineering of monoacylglycerol lipase (MGLL)” (Janssen Pharmaceutica N.V., priority 2008, dated 2012)

B1: mut-MGLL 9-303, L169S, L176S: engineered form of human MGLL, cap mutations plus truncation (protein, UniProt Q99685 9-303, looked up, variant L169S L176S)
chain: RTPQSIPYQDLPHLVNADGQYLFCRYWKPTGTPKALIFVSHGAGEHSGRYEELARMLMGLDLLVFAHDHVGHGQSEGERMVVSDFHVFVRDVLQHVDSMQKDYPGLPVFLLGHSMGGAIAILTAAERPGHFAGMVLISPLVLANPESATTFKVLAAKVLNSVLPNLSSGPIDSSVLSRNKTEVDIYNSDPLICRAGLKVCFGIQLLNAVSRVERALPKLTVPFLLLQGSADRLCDSKGAYLLMELAKSQDKTLKIYEGAYHVLHKELPEVTNSVFHEINMWVSQRTATAGTASPP
B2: mut-MGLL 9-297, L169S, L176S: engineered form of human MGLL, cap mutations plus truncation (protein, UniProt Q99685 9-297, looked up, variant L169S L176S)
chain: RTPQSIPYQDLPHLVNADGQYLFCRYWKPTGTPKALIFVSHGAGEHSGRYEELARMLMGLDLLVFAHDHVGHGQSEGERMVVSDFHVFVRDVLQHVDSMQKDYPGLPVFLLGHSMGGAIAILTAAERPGHFAGMVLISPLVLANPESATTFKVLAAKVLNSVLPNLSSGPIDSSVLSRNKTEVDIYNSDPLICRAGLKVCFGIQLLNAVSRVERALPKLTVPFLLLQGSADRLCDSKGAYLLMELAKSQDKTLKIYEGAYHVLHKELPEVTNSVFHEINMWVSQRTATA
B3: mut-MGLL 1-303, L171Q: engineered form of human MGLL, cap mutation (protein)
chain: MVDHHHHHHENLYFQGMPEESSPRRTPQSIPYQDLPHLVNADGQYLFCRYWKPTGTPKALIFVSHGAGEHSGRYEELARMLMGLDLLVFAHDHVGHGQSEGERMVVSDFHVFVRDVLQHVDSMQKDYPGLPVFLLGHSMGGAIAILTAAERPGHFAGMVLISPLVLANPESATTFKVLAAKVLNLVQPNLSLGPIDSSVLSRNKTEVDIYNSDPLICRAGLKVCFGIQLLNAVSRVERALPKLTVPFLLLQGSADRLCDSKGAYLLMELAKSQDKTLKIYEGAYHVLHKELPEVTNSVFHEINMWVSQRTATAGTASPP
B4: mut-MGLL. 1-303, L167Q, L174Q: engineered form of human MGLL, cap mutations (protein)
chain: MVDHHHHHHENLYFQGMPEESSPRRTPQSIPYQDLPHLVNADGQYLFCRYWKPTGTPKALIFVSHGAGEHSGRYEELARMLMGLDLLVFAHDHVGHGQSEGERMVVSDFHVFVRDVLQHVDSMQKDYPGLPVFLLGHSMGGAIAILTAAERPGHFAGMVLISPLVLANPESATTFKVLAAKVQNLVLPNQSLGPIDSSVLSRNKTEVDIYNSDPLICRAGLKVCFGIQLLNAVSRVERALPKLTVPFLLLQGSADRLCDSKGAYLLMELAKSQDKTLKIYEGAYHVLHKELPEVTNSVFHEINMWVSQRTATAGTASPP
B5: mut-MGLL 1-303, L167Q, L171Q: engineered form of human MGLL, cap mutations (protein)
chain: MVDHHHHHHENLYFQGMPEESSPRRTPQSIPYQDLPHLVNADGQYLFCRYWKPTGTPKALIFVSHGAGEHSGRYEELARMLMGLDLLVFAHDHVGHGQSEGERMVVSDFHVFVRDVLQHVDSMQKDYPGLPVFLLGHSMGGAIAILTAAERPGHFAGMVLISPLVLANPESATTFKVLAAKVQNLVQPNLSLGPIDSSVLSRNKTEVDIYNSDPLICRAGLKVCFGIQLLNAVSRVERALPKLTVPFLLLQGSADRLCDSKGAYLLMELAKSQDKTLKIYEGAYHVLHKELPEVTNSVFHEINMWVSQRTATAGTASPP

What follows are molecules tested on MGLL (assay: Kinetic analysis: hydrolysis of 4-methyl coumarin butyrate (4MC-B) by MGLL constructs). Settings: substrate 4MC-B; 4-5 nM MGLL, 20 mM Pipes pH 7, 150 mM NaCl, 37° C.; average of 2 or 4 separate assays.
Format: biochemical, human
Text: A small fluorescent substrate, 4-methyl coumarin butyrate (4MC-B) was used to compare the activity of the engineered mutants to the activity of wt-MGLL (hMGLL 1-303) (SEQ ID NO: 3). The catalytic efficiency (kcat/KM) for the hydrolysis of the 4MC-B was similar for wt-MGLL (hMGLL 1-303) (SEQ ID NO: 3) and all MGLL mutants tested (Table 2). A larger more aliphatic fluorescent substrate, Coumarin Arachidonate (C-A), structurally more closely related to the MGLL natural substrate, 2-AG, was used to compare the activity of wt-MGLL (hMGLL 1-303) (SEQ ID NO: 3) to TEV cleaved mut-MGLL (hMGLL 1-303 L169S, L176S) (SEQ ID NO: 5).
The Michaelis-Menten parameters for the hydrolysis of 4-methylcoumarin butyrate (4MC-B) and coumarin arachidonate (C-A) substrate were determined using 4-5 nM of MGLL in 20 mM Pipes pH 7 and 150 mM NaCl at 37° C. The change in fluorescence due to substrate hydrolysis was monitored using excitation/emission wavelengths of 335/440 in a Safire II instrument from Tecan. The hyperbolic rates versus substrate concentration curves for the hydrolysis of 4MC-B were fit to the Michaelis-Menten equation using Excel.

In order of falling Kcat:
1. B4  1.17 s⁻¹
2. B5  0.983 s⁻¹
3. B3  0.85 s⁻¹
4. B1  0.45 s⁻¹
5. B2  0.433 s⁻¹

In order of rising Km:
1. B4  84 µM
2. B5  84 µM
3. B1  88 µM
4. B3  105 µM
5. B2  126 µM
